# Key:
# [1] = molecular target: T1, Hfq;Crc (Pseudomonas aeruginosa PAO1;Pseudomonas …, UniProt Q9HUM0;Q51380 1-82;1-259, |); test: MST; 30 nM labelled Hfq6, RNA titrated, 360 nM Crc; ES buffer: 10 mM Tris pH 8.0, 10 mM KCl, 40 mM NaCl, 1 mM MgCl2; MST + 0.05% Tween-20, room temperature; EMSA + 25 ng tRNA per 10 ul, 37 C 15 min (Fig 6D); NMR; settings: protein: recombinant;recombinant; tags: none stated;His6-tag (N-terminal) removed with HRV14-3C; chain copies: 6;1; label: 5'-32P (EMSA); unlabelled (MST)
# [2] = molecular target: Hfq (Pseudomonas aeruginosa PAO1, UniProt Q9HUM0 1-82); test: MST; 30 nM labelled Hfq6, no Crc; ES buffer: 10 mM Tris pH 8.0, 10 mM KCl, 40 mM NaCl, 1 mM MgCl2; MST + 0.05% Tween-20, room temperature; EMSA + 25 ng tRNA per 10 ul, 37 C 15 min (Fig 6D); NMR; settings: protein: recombinant; tags: none stated; chain copies: 6; label: 5'-32P (EMSA); unlabelled (MST)
# [3] = molecular target: T1, Hfq;Crc; test: co-IP (anti-Hfq); RNA-dependent Crc capture; ES buffer: 10 mM Tris pH 8.0, 10 mM KCl, 40 mM NaCl, 1 mM MgCl2; MST + 0.05% Tween-20, room temperature; EMSA + 25 ng tRNA per 10 ul, 37 C 15 min (Fig 6D); NMR; settings: protein: recombinant;recombinant; tags: none stated;His6-tag (N-terminal) removed with HRV14-3C; chain copies: 6;1
Binder,Kd [1] [nM],Kd [2] [nM],binding result [3]
AAAAAUAACAACAAGAGG (ssRNA) [amiE6ARN],33.9 ± 1.7,43.2 ± 2.3,–
AAAAAAAAAAAAAAAAAAAAAAAAAAA (ssRNA) [poly(A)27],–,–,binds
